Changes are numbered by the printed parent chain.
Experiments:
Assay in all cases: holdup assay
Design in all cases: key: below the threshold = too weak to quantify, mostly under pKd 3.1 to 4
Conditions in all cases: plain residues with an end cap or a label only (N-terminal biotin on a linker: ado-ado)
DLG3_1, Q92796 = biological target: T1, DLG3_1, Q92796
T1 sequence (Q92796 125-227, limits assumed, looked up): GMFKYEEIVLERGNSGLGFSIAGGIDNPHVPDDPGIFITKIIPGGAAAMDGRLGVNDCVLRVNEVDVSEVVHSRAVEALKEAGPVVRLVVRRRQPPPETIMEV

LAP2, Q96RT1 = biological target: LAP2, Q96RT1
Inadl_6, Q8NI35 = biological target: Inadl_6, Q8NI35
GRASP, Q7Z6J2 = biological target: GRASP, Q7Z6J2
SNX27, Q96L92 = biological target: SNX27, Q96L92
FRMPD2_2, Q68DX3 = biological target: FRMPD2_2, Q68DX3
DLG5_1, Q8TDM6 = biological target: DLG5_1, Q8TDM6
LNX1_2, Q8TBB1 = biological target: LNX1_2, Q8TBB1
AHNAK1, Q09666 = biological target: AHNAK1, Q09666
MPP6, Q9NZW5 = biological target: T2, MPP6, Q9NZW5
T2 sequence (Q9NZW5 125-219, limits assumed, looked up): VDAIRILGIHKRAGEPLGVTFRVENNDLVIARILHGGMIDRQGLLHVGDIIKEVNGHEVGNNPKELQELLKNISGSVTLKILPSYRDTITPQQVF

GRIP1_4, Q9Y3R0 = biological target: T3, GRIP1_4, Q9Y3R0
T3 sequence (Q9Y3R0 467-571, limits assumed, looked up): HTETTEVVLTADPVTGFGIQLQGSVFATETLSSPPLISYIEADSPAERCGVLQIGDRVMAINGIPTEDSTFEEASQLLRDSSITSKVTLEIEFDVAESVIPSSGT

MPDZ_5, O75970 = biological target: T4, MPDZ_5, O75970
T4 sequence (O75970 695-796, limits assumed, looked up): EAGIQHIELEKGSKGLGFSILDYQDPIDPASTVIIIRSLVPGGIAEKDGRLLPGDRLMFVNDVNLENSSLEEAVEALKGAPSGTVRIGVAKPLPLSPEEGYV

PDZD2_2, O15018 = biological target: T5, PDZD2_2, O15018
T5 sequence (O15018 329-429, limits assumed, looked up): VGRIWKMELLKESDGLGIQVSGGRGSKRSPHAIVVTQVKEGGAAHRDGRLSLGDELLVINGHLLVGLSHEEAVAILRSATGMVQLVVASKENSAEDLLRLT

SNTB1, Q13884 = biological target: T6, SNTB1, Q13884
T6 sequence (Q13884 107-205, limits assumed, looked up): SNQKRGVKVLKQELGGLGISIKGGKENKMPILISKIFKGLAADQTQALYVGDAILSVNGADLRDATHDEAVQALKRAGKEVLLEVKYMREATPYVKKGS

MAGI1_2, Q96QZ7 = biological target: MAGI1_2, Q96QZ7
TIAM2, Q8IVF5 = biological target: T7, TIAM2, Q8IVF5
T7 sequence (Q8IVF5 885-986, limits assumed, looked up): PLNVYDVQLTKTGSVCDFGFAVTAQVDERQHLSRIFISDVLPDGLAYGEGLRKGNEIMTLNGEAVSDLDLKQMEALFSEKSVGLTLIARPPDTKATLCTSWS

ARHGAP21, Q5T5U3 = biological target: T8, ARHGAP21, Q5T5U3
T8 sequence (Q5T5U3 45-169, limits assumed, looked up): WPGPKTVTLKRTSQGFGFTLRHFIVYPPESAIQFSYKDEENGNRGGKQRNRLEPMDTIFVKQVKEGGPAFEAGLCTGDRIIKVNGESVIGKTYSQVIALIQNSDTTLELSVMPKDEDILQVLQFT

LIN7B, Q9HAP6 = biological target: T9, LIN7B, Q9HAP6
T9 sequence (Q9HAP6 88-185, limits assumed, looked up): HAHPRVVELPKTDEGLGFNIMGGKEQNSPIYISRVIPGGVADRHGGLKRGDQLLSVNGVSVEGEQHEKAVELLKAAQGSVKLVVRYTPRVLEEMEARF

LIN7C, Q9NUP9 = biological target: T10, LIN7C, Q9NUP9
T10 sequence (Q9NUP9 88-185, limits assumed, looked up): T9 sequence (Q9HAP6 88-185, limits assumed, looked up) with A2S, D13E, V35I, V40I, Q65H, S79K, R89K, A96S

GRID2IP_2, A4D2P6 = biological target: GRID2IP_2, A4D2P6
FRMPD2_1, Q68DX3 = biological target: FRMPD2_1, Q68DX3
SCRIB_3, Q14160 = biological target: SCRIB_3, Q14160
PICK1, Q9NRD5 = biological target: PICK1, Q9NRD5
TX1BP3, O14907 = biological target: T11, TX1BP3, O14907
T11 sequence (O14907 10-122, limits assumed, looked up): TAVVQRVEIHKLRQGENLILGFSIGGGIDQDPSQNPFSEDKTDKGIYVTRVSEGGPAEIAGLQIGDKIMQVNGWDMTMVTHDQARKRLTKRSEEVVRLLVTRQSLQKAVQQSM

MPDZ_10, O75970 = biological target: T12, MPDZ_10, O75970
T12 sequence (O75970 1624-1722, limits assumed, looked up): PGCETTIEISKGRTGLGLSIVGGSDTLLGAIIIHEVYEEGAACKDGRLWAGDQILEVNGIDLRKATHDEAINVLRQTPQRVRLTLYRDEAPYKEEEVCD

LNX1_2, Q8TBB1, sequence (Q8TBB1 371-470): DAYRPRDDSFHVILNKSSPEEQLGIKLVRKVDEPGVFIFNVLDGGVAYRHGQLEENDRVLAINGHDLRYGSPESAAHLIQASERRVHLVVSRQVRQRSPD
FRMPD2_1, Q68DX3, sequence (Q68DX3 770-861): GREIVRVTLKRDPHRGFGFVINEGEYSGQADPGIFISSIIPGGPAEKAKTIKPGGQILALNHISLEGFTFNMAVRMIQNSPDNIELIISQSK
LAP2, Q96RT1, sequence (Q96RT1 other isoform, or with tags, fused parts or gaps): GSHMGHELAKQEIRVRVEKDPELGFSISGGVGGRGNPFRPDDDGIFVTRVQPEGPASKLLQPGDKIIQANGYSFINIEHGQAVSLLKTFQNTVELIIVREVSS
FRMPD2_2, Q68DX3, sequence (Q68DX3 944-1038): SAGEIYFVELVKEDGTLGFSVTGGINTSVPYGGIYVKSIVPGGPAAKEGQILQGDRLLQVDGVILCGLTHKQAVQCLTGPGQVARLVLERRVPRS
GRID2IP_2, A4D2P6, sequence (A4D2P6 272-370): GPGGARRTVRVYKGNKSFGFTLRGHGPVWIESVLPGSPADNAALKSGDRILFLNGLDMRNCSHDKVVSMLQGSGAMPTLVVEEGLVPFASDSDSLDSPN
PICK1, Q9NRD5, sequence (Q9NRD5 17-115): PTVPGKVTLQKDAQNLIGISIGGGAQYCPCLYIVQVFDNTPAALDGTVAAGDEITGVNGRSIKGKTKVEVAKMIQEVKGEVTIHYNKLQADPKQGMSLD
DLG5_1, Q8TDM6, sequence (Q8TDM6 617-713): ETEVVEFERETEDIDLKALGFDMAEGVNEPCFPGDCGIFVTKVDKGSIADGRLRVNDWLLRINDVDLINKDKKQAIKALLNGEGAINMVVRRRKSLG
SCRIB_3, Q14160, sequence (Q14160 999-1103): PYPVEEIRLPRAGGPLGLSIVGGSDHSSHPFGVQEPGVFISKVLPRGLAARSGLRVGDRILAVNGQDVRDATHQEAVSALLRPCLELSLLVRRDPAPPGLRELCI
AHNAK1, Q09666, sequence (Q09666 4-100): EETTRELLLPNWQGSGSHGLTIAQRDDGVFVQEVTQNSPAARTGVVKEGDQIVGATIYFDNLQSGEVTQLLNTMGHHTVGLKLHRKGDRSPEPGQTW
Inadl_6, Q8NI35, sequence (Q8NI35 1058-1167): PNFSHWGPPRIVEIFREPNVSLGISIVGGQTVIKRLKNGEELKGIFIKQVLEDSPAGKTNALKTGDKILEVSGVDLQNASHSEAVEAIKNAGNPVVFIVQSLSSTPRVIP
GRASP, Q7Z6J2, sequence (Q7Z6J2 96-193): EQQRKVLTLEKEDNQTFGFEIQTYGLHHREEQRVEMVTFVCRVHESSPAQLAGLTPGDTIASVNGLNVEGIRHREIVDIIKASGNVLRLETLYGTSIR
MAGI1_2, Q96QZ7, sequence (Q96QZ7 456-580): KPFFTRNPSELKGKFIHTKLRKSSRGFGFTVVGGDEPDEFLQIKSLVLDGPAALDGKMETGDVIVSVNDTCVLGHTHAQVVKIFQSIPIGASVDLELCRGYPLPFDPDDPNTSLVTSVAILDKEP

Binder	pKd (DLG3_1, Q92796)	pKd (LAP2, Q96RT1)	pKd (Inadl_6, Q8NI35)	pKd (GRASP, Q7Z6J2)	pKd (SNX27, Q96L92)	pKd (FRMPD2_2, Q68DX3)	pKd (DLG5_1, Q8TDM6)	pKd (LNX1_2, Q8TBB1)	pKd (AHNAK1, Q09666)	pKd (MPP6, Q9NZW5)	pKd (GRIP1_4, Q9Y3R0)	pKd (MPDZ_5, O75970)	pKd (PDZD2_2, O15018)	pKd (SNTB1, Q13884)	pKd (MAGI1_2, Q96QZ7)	pKd (TIAM2, Q8IVF5)	pKd (ARHGAP21, Q5T5U3)	pKd (LIN7B, Q9HAP6)	pKd (LIN7C, Q9NUP9)	pKd (GRID2IP_2, A4D2P6)	also measured
ETQVTAETVI [TMEM225B, P0DP42]	below the threshold	below the threshold	below the threshold	below the threshold	5.39	below the threshold	below the threshold	below the threshold	below the threshold	below the threshold	below the threshold	below the threshold	3.92	4.8	below the threshold	3.79	below the threshold	below the threshold	4.07	below the threshold	pKd (FRMPD2_1, Q68DX3): below the threshold; pKd (SCRIB_3, Q14160): 4.34; pKd (PICK1, Q9NRD5): 3.97; pKd (TX1BP3, O14907): below the threshold; pKd (MPDZ_10, O75970): below the threshold
RKPKPSSSCC [RAB9A, P51151]	below the threshold	below the threshold	below the threshold	below the threshold	below the threshold	below the threshold	below the threshold	below the threshold	below the threshold	3.51	below the threshold	below the threshold	4.35	below the threshold	3.64	3.8	below the threshold	3.75	3.69	3.54	pKd (FRMPD2_1, Q68DX3): below the threshold; pKd (SCRIB_3, Q14160): below the threshold; pKd (PICK1, Q9NRD5): below the threshold; pKd (TX1BP3, O14907): 3.89; pKd (MPDZ_10, O75970): below the threshold
LKVPPEERLI [CRB2, Q5IJ48]	below the threshold	below the threshold	below the threshold	below the threshold	below the threshold	below the threshold	below the threshold	below the threshold	below the threshold	3.68	below the threshold	below the threshold	below the threshold	below the threshold	below the threshold	below the threshold	3.89	below the threshold	below the threshold	below the threshold	pKd (FRMPD2_1, Q68DX3): below the threshold; pKd (SCRIB_3, Q14160): 3.75; pKd (PICK1, Q9NRD5): below the threshold; pKd (TX1BP3, O14907): below the threshold; pKd (MPDZ_10, O75970): below the threshold
YRLAQESGLV [ABCC6, O95255]	below the threshold	below the threshold	below the threshold	below the threshold	below the threshold	below the threshold	below the threshold	below the threshold	below the threshold	3.74	below the threshold	below the threshold	3.51	3.57	below the threshold	below the threshold	4.1	below the threshold	4.01	below the threshold	pKd (FRMPD2_1, Q68DX3): below the threshold; pKd (SCRIB_3, Q14160): below the threshold; pKd (PICK1, Q9NRD5): 4.19; pKd (TX1BP3, O14907): below the threshold; pKd (MPDZ_10, O75970): below the threshold
